Assay [1] deals with T1, recombinant human Tim-3-Fc (R&D Systems, 2365-TM) (human, UniProt Q8TDQ0 22-202, biotinylated in the Galectin-9 competition ELISA (sites not given)).
T1 construct: Bought protein; also called huTim-3-Fc; biotinylated Tim-3-Fc; not shown: Fc of the bought fusion protein
Kind of assay: SPR Biacore, human Tim-3 Fc.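 Further: antibodies captured on an anti-FLAG sensor surface, Tim-3-Fc flowed over as analyte at 25 °C in HBS-EP+ buffer, rates fit with a 1:1 Langmuir model.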 On the technique in general: Surface plasmon resonance follows binding to a sensor surface in real time, without labels.

Assay [2] concerns the target T2, human Tim-3 expressed on the cell surface (human, UniProt Q8TDQ0 22-301).
T2 construct: also called hTim-3; Human Tim-3 (CHO)
Briefly: flow cytometry, CHO-human Tim-3 cells.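 Further: antibodies bound on ice for 60 min, detected by PE anti-human IgG Fc secondary, mean fluorescence intensity fit to one-site specific binding with Hill slope, parental CHO cells as nonspecific control.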 A general note: Flow cytometry measures light scatter and fluorescence of single cells or particles in a stream.

The target of assay [3] is T2, human Tim-3 expressed on the cell …. Briefly: flow cytometry, activated human CD4+ T cells.
The target in assay [4] is T3, cynomolgus Tim-3 expressed on CHO cells (cynomolgus monkey).
T3 construct: also called cTim-3; Cyno Tim-3 (CHO)
T3 chain: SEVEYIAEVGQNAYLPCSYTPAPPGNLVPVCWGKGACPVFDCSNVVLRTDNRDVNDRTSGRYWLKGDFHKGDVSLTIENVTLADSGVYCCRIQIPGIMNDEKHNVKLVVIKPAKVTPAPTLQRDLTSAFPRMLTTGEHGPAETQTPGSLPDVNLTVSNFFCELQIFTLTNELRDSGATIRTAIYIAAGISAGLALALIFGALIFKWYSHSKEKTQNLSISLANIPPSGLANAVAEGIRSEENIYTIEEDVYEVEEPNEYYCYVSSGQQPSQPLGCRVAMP
Kind of assay: flow cytometry, CHO-cyno Tim-3 cells.

Assay [5] concerns the target T1, recombinant human Tim-3-Fc (R&D …). Briefly: SPR Biacore, human Tim-3 Fc; KD estimated.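 Further: antibodies captured on an anti-FLAG sensor surface, Tim-3-Fc flowed over as analyte at 25 °C in HBS-EP+ buffer, rates fit with a 1:1 Langmuir model.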

Data on 18 molecules can be found in patent publication US20200190192A1 (SUTRO BIOPHARMA, published 2020).

Where a chain is given by its changes, count along the chain named.

B1: h22E11-VK3-11 × h22E11-VH3-23 (antibody, V domains shown)
VH: EVQLLESGGGLVQPGGSLRLSCAVSGFSLTSYGVHWVRQAPGKGLEWLVVIWSDGSTTYNDSVKGRFTISKDNSKNTVYLQMNSLRAEDTAVYYCARQGGYRYDDAMDYWGQGTLVTVSS
VL: EIVLTQSPATLSLSPGERATLSCKASQSVDYDGNSYVNWYQQKPGQAPRLLIYAASNLESGIPARFSGSGSGTDFTLTISSLEPEDFAVYYCQQSNEDPYTFGQGTKVEIK
notes: Humanized m22E11
Consider B1, for which, in assay [1], the koff was determined as 0.000934 s⁻¹. In addition, the Kd in assay [2] is 0.7 nM; in assay [3], 0.9 nM; in assay [4] it was 6.9 nM; in assay [5], 5.3 nM.

B2: h22E11-VK2-28 × h22E11-VH3-23 (antibody, V domains shown)
VH: B1 VH
VL: DIVLTQSPLSLPVTPGEPASISCKASQSVDYDGNSYVNWYLQKPGQSPQLLIYAASNLESGVPDRFSGSGSGTDFTLKISRVEAEDVGVYYCQQSNEDPYTFGQGTKVEIK
notes: Humanized m22E11
For the molecule B2, the koff in assay [1] was determined as 0.000911 s⁻¹. The Kd in assay [2] was 0.8 nM; in assay [3] it was 1.7 nM; in assay [4], 5.4 nM; in assay [5], 5.9 nM.

B3: h22E11-VK3-11 × h22E11-VH5-51 (antibody, V domains shown)
VH: EVQLVQSGAEVKKPGESLKISCKVSGFSLTSYGVHWVRQMPGKGLEWLVVIWSDGSTTYNPSFQGQVTISKDKSISTVYLQWSSLKASDTAMYYCARQGGYRYDDAMDYWGQGTLVTVSS
VL: B1 VL
notes: Humanized m22E11
With B3, the koff in assay [1] was 0.000875 s⁻¹. The Kd in assay [2] is 0.8 nM; in assay [3] it was 0.6 nM; in assay [4], 2.7 nM; in assay [5], 4.3 nM.

B4: h22E11-5-IgG-LC × h22E11-VH3-23 (antibody, V domains shown)
VH: B1 VH
VL: B1 VL with A9G, N38A, A64D, S81R
notes: Humanized m22E11
Take B4: the koff in assay [1] was 0.000895 s⁻¹. For the same molecule, the Kd in assay [2] is 0.8 nM; in assay [3], 1.2 nM; in assay [4], 13.2 nM; in assay [5], 5.3 nM.

B5: h22E11-5-IgG-LC × h22E11-VH5-51 (antibody, V domains shown)
VH: B3 VH
VL: B1 VL with A9G, N38A, A64D, S81R
notes: Humanized m22E11
For the molecule B5, the dissociation rate constant (koff) in assay [1] is 0.0011 s⁻¹. Besides, the Kd in assay [5] is 5 nM.

B6: h22E11-VK1-39 × h22E11-VH1-69 (antibody, V domains shown)
VH: QVQLVQSGAEVKKPGSSVKVSCKVSGFSLTSYGVHWVRQAPGQGLEWLVVIWSDGSTTYNQKFQGRVTITKDESTSTVYMELSSLRSEDTAVYYCARQGGYRYDDAMDYWGQGTLVTVSS
VL: DIQLTQSPSSLSASVGDRVTITCKASQSVDYDGNSYVNWYQQKPGKAPKLLIYAASNLESGVPSRFSGSGSGTDFTLTISSLQPEDFATYYCQQSNEDPYTFGQGTKVEIK
notes: Humanized m22E11
As to B6, the dissociation rate constant (koff) in assay [1] came to 0.00094 s⁻¹. The Kd in assay [2] is 0.6 nM; in assay [3] it was 2.6 nM; in assay [4] it was 1.7 nM; in assay [5], 6 nM.

B7: h22E11-VK2-28 × h22E11-VH1-69 (antibody, V domains shown)
VH: B6 VH
VL: B2 VL
notes: Humanized m22E11
On to B7, for which the koff in assay [1] worked out at 0.000863 s⁻¹. The Kd in assay [2] is 0.7 nM; in assay [3], 2.3 nM; in assay [4] it was 1.7 nM; in assay [5], 5.4 nM.

B8: h22E11-VK1-39 × h22E11-VH5-51 (antibody, V domains shown)
VH: B3 VH
VL: B6 VL
notes: Humanized m22E11
With B8, the koff in assay [1] was found to be 0.000947 s⁻¹. Further, the Kd in assay [2] is 0.4 nM; in assay [3], 0.9 nM; in assay [4] it was 2.1 nM; in assay [5] it was 5.3 nM.

B9: h22E11-VK1-39 × h22E11-VH3-23 (antibody, V domains shown)
VH: B1 VH
VL: B6 VL
notes: Humanized m22E11
As to B9, in assay [1], the koff came out at 0.00094 s⁻¹. Also, the Kd is 0.5 nM in assay [2], 1.1 nM in assay [3], 4.5 nM in assay [4] and 5.6 nM in assay [5].

B10: h22E11-VK3-11 × h22E11-VH1-69 (antibody, V domains shown)
VH: B6 VH
VL: B1 VL
notes: Humanized m22E11
In the case of B10, in assay [1], the koff amounted to 0.000867 s⁻¹. The Kd in assay [2] was 1 nM; in assay [3], 4 nM; in assay [4], 2.8 nM; in assay [5], 4.9 nM.

B11: h22E11-VK1-39 × h22E11-VH4-30-4 (antibody, V domains shown)
VH: QVQLQESGPGLVKPSQTLSLTCTVSGFSLTSYGVHWIRQPPGKGLEWLVVIWSDGSTTYNPSLKSRVTISKDTSKNQVSLKLSSVTAADTAVYYCARQGGYRYDDAMDYWGQGTLVTVSS
VL: B6 VL
notes: Humanized m22E11
As to B11, the koff in assay [1] was determined as 0.00126 s⁻¹. Moreover, the Kd in assay [2] is 0.7 nM; in assay [4] it was 5.5 nM; in assay [5], 9.1 nM.

B12: h22E11-VK1-39 × h22E11-5-IgG-HC (antibody, V domains shown)
VH: B1 VH with L5V, D61S, S62A, V63L, G65S, S74A, T77S
VL: B6 VL
notes: Humanized m22E11
As for B12, the koff in assay [1] was determined as 0.00102 s⁻¹. Besides, the Kd in assay [2] is 0.6 nM; in assay [3], 2.4 nM; in assay [4], 4.7 nM; in assay [5], 6.2 nM.

B13: h22E11-5-IgG-LC × h22E11-VH1-69 (antibody, V domains shown)
VH: B6 VH
VL: B1 VL with A9G, N38A, A64D, S81R
notes: Humanized m22E11
As for B13, the off-rate (koff) in assay [1] came to 0.000991 s⁻¹. Besides, the Kd in assay [2] was 0.9 nM; in assay [3], 1.6 nM; in assay [4], 3 nM; in assay [5] it was 4.9 nM.

B14: h22E11-VK4-1 × h22E11-VH4-30-4 (antibody, V domains shown)
VH: B11 VH
VL: DIVLTQSPDSLAVSLGERATINCKASQSVDYDGNSYVNWYQQKPGQPPKLLIYAASNLESGVPDRFSGSGSGTDFTLTISSLQAEDVAVYYCQQSNEDPYTFGQGTKVEIK
notes: Humanized m22E11
Regarding B14, in assay [1], the koff amounted to 0.00119 s⁻¹. Besides, the Kd in assay [2] is 1.1 nM; in assay [3], 5.7 nM; in assay [4], 5 nM; in assay [5] it was 8.1 nM.

B15: h22E11-VK3-11 × h22E11-VH4-30-4 (antibody, V domains shown)
VH: B11 VH
VL: B1 VL
notes: Humanized m22E11
On to B15, for which, in assay [1], the koff was determined as 0.00107 s⁻¹. Also, the Kd is 1 nM in assay [2], 7.1 nM in assay [3], 4.5 nM in assay [4] and 7.2 nM in assay [5].

B16: h22E11-VK4-1 × h22E11-VH5-51 (antibody, V domains shown)
VH: B3 VH
VL: B14 VL
notes: Humanized m22E11
Take B16: the koff in assay [1] stood at 0.000881 s⁻¹. Moreover, the Kd in assay [2] was 0.8 nM; in assay [3] it was 0.6 nM; in assay [4] it was 1.9 nM; in assay [5], 4.8 nM.

B17: h22E11-5-IgG-LC × h22E11-VH4-30-4 (antibody, V domains shown)
VH: B11 VH
VL: B1 VL with A9G, N38A, A64D, S81R
notes: Humanized m22E11
B17: the koff in assay [1] stood at 0.00117 s⁻¹. Also, the Kd in assay [2] is 3.7 nM; in assay [5], 7.6 nM.

B18: h22E11-VK4-1 × h22E11-5-IgG-HC (antibody, V domains shown)
VH: B1 VH with L5V, D61S, S62A, V63L, G65S, S74A, T77S
VL: B14 VL
notes: Humanized m22E11
With B18, the koff in assay [1] came out at 0.000973 s⁻¹. The dissociation constant (Kd) in assay [2] is 0.8 nM; in assay [3] it was 1.4 nM; in assay [4], 5.3 nM; in assay [5] it was 5.7 nM.

By koff is commonly meant the first-order rate constant of dissociation. As usually defined, the Kd is the concentration at which binding is half-saturated.
